The assay concerns the target MEF2C (pcDNAMEF2C, mouse MEF2C cDNA) (mouse) (UniProt Q8CFN5). Nature of the assay: cell-based or functional assay.

Among the data in patent publication US20050032696A1 are MEF2C-mediated transcriptional activation of the hTnIslow USE (luciferase reporter, co-transfected C2C12 cells) values, retold here.

MEF2C (pcDNAMEF2C, mouse MEF2C cDNA) (mouse), sequence (Q8CFN5 whole entry): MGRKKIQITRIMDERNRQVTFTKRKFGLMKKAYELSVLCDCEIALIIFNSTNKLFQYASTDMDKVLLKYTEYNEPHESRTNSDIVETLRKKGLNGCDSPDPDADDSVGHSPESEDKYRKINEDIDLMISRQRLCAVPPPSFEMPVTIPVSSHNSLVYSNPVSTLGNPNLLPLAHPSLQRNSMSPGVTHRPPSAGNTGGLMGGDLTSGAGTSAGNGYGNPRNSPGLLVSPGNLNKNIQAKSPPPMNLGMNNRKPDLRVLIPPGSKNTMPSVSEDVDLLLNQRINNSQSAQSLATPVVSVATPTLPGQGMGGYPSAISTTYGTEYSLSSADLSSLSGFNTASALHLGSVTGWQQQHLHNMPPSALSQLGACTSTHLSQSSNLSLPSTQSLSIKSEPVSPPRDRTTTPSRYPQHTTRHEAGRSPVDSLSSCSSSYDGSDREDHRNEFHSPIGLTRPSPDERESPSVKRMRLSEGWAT

On to “hMusTRD1α1944aa (pcDNA3.1hMusTRD1α1944aamyc/his) (from UniProt Q9UHL9 1-959)”, for which the MEF2C-mediated transcriptional activation of the hTnIslow USE (luciferase reporter, co-transfected C2C12 cells) turned out to be 3 fold.
